Experimental findings from US20110300138A1 (published 2011) are described below.

Test [1] addresses T1, human TSH receptor (full length), coated on ELISA plate wells (human, UniProt P16473 22-764).
T1 construct: TSHR coated ELISA plate wells of the TRAb ELISA; also called thyroid stimulating hormone receptor
Nature of the test: ELISA, inhibition of M22 Fab-peroxidase (competitor) binding to TSHR coated wells; 1 µg/mL in HBD serum; mean ± SD.

In test [2] the target is T1, human TSH receptor (full length), …. In words: ELISA, inhibition of M22 Fab-peroxidase (competitor) binding to TSHR coated wells; 0.1 µg/mL in HBD serum; mean ± SD.
For test [3] the target is unchanged. In words: ELISA, inhibition of M22 Fab-peroxidase (competitor) binding to TSHR coated wells; 0.01 µg/mL in HBD serum; mean ± SD.
For test [4] the target is unchanged. In words: ELISA, inhibition of M22 Fab-peroxidase (competitor) binding to TSHR coated wells; 0.03 µg/mL in HBD serum; mean ± SD.
Test [5] has the same target. Nature of the test: ELISA, inhibition of M22 Fab-peroxidase (competitor) binding to TSHR coated wells; 1 µg/mL in assay buffer; mean ± SD.
The target is the same in test [6]. Nature of the test: ELISA, inhibition of M22 Fab-peroxidase (competitor) binding to TSHR coated wells; 0.1 µg/mL in assay buffer; mean ± SD. (In an ELISA, binding on a coated surface is turned into a signal by an enzyme label.)
The target is the same in test [7]. In words: ELISA, inhibition of M22 Fab-peroxidase (competitor) binding to TSHR coated wells; 0.01 µg/mL in assay buffer; mean ± SD.
Test [8] has the same target. In words: ELISA, inhibition of M22 Fab-peroxidase (competitor) binding to TSHR coated wells; 0.03 µg/mL in assay buffer; mean ± SD.
Test [9] addresses T2, TSHR260-alkaline phosphatase (TSHR260-AP) (human, UniProt P05187 23-511).
T2 construct: Fusion of human TSHR amino acids 22-260 (construct codes 1-260, 1-21 being the leader) with secreted alkaline phosphatase, expressed in insect cells; In the ELISA the antibody bridges full length detergent-solubilised TSHR coated on the wells and TSHR260-AP in the liquid phase
In words: TSHR260-AP bridge ELISA, full length TSHR on wells; 10 µg/mL, diluted in HBD. As to the method:
(§1) An ELISA was established based on the ability of divalent TSHR antibodies to bind with one antigen binding site to TSHR coated onto an ELISA plate well and with the other antigen binding site to TSHR260-AP in a liquid phase i.e. forming a bridge. TSHR in the form of full length detergent-solubilised receptor expressed in CHO cells was coated onto ELISA plate wells via a C-terminal antibody as described previously (Bolton J et al 1999 supra). In the assay 75 μL of start buffer (as described for TRAb ELISA; Bolton J, et al 1999 supra) and 75 μL of test sample (patient sera or monoclonal antibodies) were added to the ELISA plate wells coated with the full length detergent solubilised TSHR and incubated for 2 hours at room temperature with shaking (500 rpm). Then the contents of the wells were removed, the wells washed 3 times with wash buffer (50 mmol/L NaCl, 20 mmol/L Tris pH 7.8, 1% Triton X-100) followed by addition of […] of TSHR260-AP (diluted in wash buffer containing 0.2 g/L MgCl₂-6H₂O and 2 g/L BSA). After incubation for 1 hour at room temperature with shaking (500 rpm) the wells were emptied, washed (3 times) and 100 μL of p-nitrophenyl phosphate (pNpp) substrate (Europa Bioproducts Ltd, Ely, Cambridge UK) added and the plate incubated in the dark for 45 minutes. Thereafter 100 μL of stop solution (1 mol/L NaOH) was added and the absorbance read at 405 nm in an ELISA plate reader. […] In some experiments solubilised preparations of recombinant TSHR containing mutation R255D expressed in CHO cells were used to coat the ELISA plate wells.
(§2) TSHR260-AP is a fusion protein consisting of a fragment of human TSHR (amino acids 22-260) e with alkaline phosphatase. […] Mean absorbance = mean of duplicate determinations.

For test [10], the target named is T2, TSHR260-alkaline phosphatase …. In words: TSHR260-AP bridge ELISA, full length TSHR on wells; 0.1 µg/mL, diluted in HBD. The procedure: as §1, §2
Test [11] shares this target. In words: TSHR260-AP bridge ELISA, full length TSHR on wells; 250 µg/mL, diluted in HBD. As to the method:
as §1, §2

The target is the same in test [12]. In words: TSHR260-AP bridge ELISA, full length TSHR on wells; 0.005 µg/mL, diluted in HBD. As to the method: as §1, §2
Test [13] has the same target. Nature of the test: TSHR260-AP bridge ELISA, full length TSHR on wells; 10 µg/mL, diluted in assay buffer. The procedure: as §1, §2
For test [14] the target is unchanged. Nature of the test: TSHR260-AP bridge ELISA, full length TSHR on wells; 0.1 µg/mL, diluted in assay buffer. As to the method: as §1, §2
Test [15] shares this target. Nature of the test: TSHR260-AP bridge ELISA, full length TSHR on wells; 250 µg/mL, diluted in assay buffer. The procedure:
as §1, §2

The target is the same in test [16]. In words: TSHR260-AP bridge ELISA, full length TSHR on wells; 0.005 µg/mL, diluted in assay buffer. As to the method:
as §1, §2

B1: K1-18 IgG (antibody, V domains shown)
VH: EVQLVQSGAEVKKPGESLKISCKGSGYSFTNYWIGWVRQMPGKGLEWMGIIYPYDSDTRYSPSFEGQVTISADKSIRTAYLHWSSLKASDTAMYYCVRPRDGSYPYDAFDIWGQGTMVTVSS
VL: EIVLTQSPGTLSLSPGERATLSCRASQSVSNNYLAWYQQKPGQAPRLLIYGASSRATGIPDRFSGSGSGTDFTLTISRLEPEDFAVYYCQHCGSSLRAFGQGTKVEIKR
notes: Human IgG1 with kappa light chains, purified from hetero-hybridoma culture supernatant; also called human monoclonal autoantibody to the TSHR with TSH agonist (stimulating) activity
In the case of B1, the “Inhibition of binding (%)” value in test [1] is 94.6%; in test [2] it was 56.3%; in test [3], -4%; in test [4] it was 13.6%; in [5] it was 96.3%; in [6], 71.9%. Further, the “Inhibition of binding (%)” value worked out at 8.9% in test [7] and 35.7% in test [8].

B2: K1-18 Fab (Fab, V domains shown)
VH: EVQLVQSGAEVKKPGESLKISCKGSGYSFTNYWIGWVRQMPGKGLEWMGIIYPYDSDTRYSPSFEGQVTISADKSIRTAYLHWSSLKASDTAMYYCVRPRDGSYPYDAFDIWGQGTMVTVSS
VL: EIVLTQSPGTLSLSPGERATLSCRASQSVSNNYLAWYQQKPGQAPRLLIYGASSRATGIPDRFSGSGSGTDFTLTISRLEPEDFAVYYCQHCGSSLRAFGQGTKVEIKR
notes: residue limits as in claim 65
Regarding B2, the “Mean absorbance at 405 nm” value is -0.002 absorbance at 405 nm in test [9]; -0.011 absorbance at 405 nm in test [10]; -0.007 absorbance at 405 nm in [11]; -0.011 absorbance at 405 nm in test [12]; 0.008 absorbance at 405 nm in [13]; 0.002 absorbance at 405 nm in test [14]. The “Mean absorbance at 405 nm” value is 0.049 absorbance at 405 nm in [15] and -0.004 absorbance at 405 nm in test [16].

B3: K1-18 IgG (antibody, V domains shown)
VH: EVQLVQSGAEVKKPGESLKISCKGSGYSFTNYWIGWVRQMPGKGLEWMGIIYPYDSDTRYSPSFEGQVTISADKSIRTAYLHWSSLKASDTAMYYCVRPRDGSYPYDAFDIWGQGTMVTVSS
VL: EIVLTQSPGTLSLSPGERATLSCRASQSVSNNYLAWYQQKPGQAPRLLIYGASSRATGIPDRFSGSGSGTDFTLTISRLEPEDFAVYYCQHCGSSLRAFGQGTKVEIKR
notes: Human IgG1 kappa purified from hetero-hybridoma supernatant
Turning to B3, the “Mean absorbance at 405 nm” value in [9] was found to be 0.66 absorbance at 405 nm; in [10] it was 0.292 absorbance at 405 nm; in [11], 0.722 absorbance at 405 nm; in test [12] it was 0.013 absorbance at 405 nm; in test [13] it was 0.8 absorbance at 405 nm; in [14], 0.545 absorbance at 405 nm. Moreover, the “Mean absorbance at 405 nm” value in test [15] came to 1.2 absorbance at 405 nm; in test [16] it was 0.136 absorbance at 405 nm.

B4: K1-70 IgG (antibody, V domains shown)
VH: EVQLVQSGAEVKKPGQSLKISCKASGYSLTDNWIGWVRQKPGKGLEWMGIIYPGDSDTRYSPSFQGQVTISADKSINTAYLQWSSLKASDTAIYYCVGLDWNYNPLRYWGPGTLVTVSS
VL: QSVLTQPPSVSAAPGQKVTISCSGSSSDIGSNYVSWYQQFPGTAPKLLIYDNNKRPSAIPDRFSGSKSGTSATLGITGLQTGDEADYYCGTWDSRLGIAVFGGGTQLTVLG
notes: Human IgG1 with lambda light chains, purified from hetero-hybridoma culture supernatant
With B4, the “Inhibition of binding (%)” value in test [1] turned out to be 96.4%; in [2] it was 69.7%; in test [3], 9.2%; in test [4] it was 34.5%; in test [5], 98.1%; in [6] it was 93%. For the same molecule, the “Inhibition of binding (%)” value in [7] amounted to 28%; in [8], 71.8%.

B5: K1-70 Fab (Fab, V domains shown)
VH: EVQLVQSGAEVKKPGQSLKISCKASGYSLTDNWIGWVRQKPGKGLEWMGIIYPGDSDTRYSPSFQGQVTISADKSINTAYLQWSSLKASDTAIYYCVGLDWNYNPLRYWGPGTLVTVSS
VL: QSVLTQPPSVSAAPGQKVTISCSGSSSDIGSNYVSWYQQFPGTAPKLLIYDNNKRPSAIPDRFSGSKSGTSATLGITGLQTGDEADYYCGTWDSRLGIAVFGGGTQLTVLG
notes: also called Fab of K1-70
Consider B5, for which the “Inhibition of binding (%)” value was found to be 96.1% in [1]; 86% in [2]; 27.9% in [3]; 58.8% in [4]; 97.2% in test [5]; 94.6% in test [6]. The “Inhibition of binding (%)” value in test [7] worked out at 57.5%; in test [8], 82%.

B6: K1-70 Fab (Fab, V domains shown)
VH: EVQLVQSGAEVKKPGQSLKISCKASGYSLTDNWIGWVRQKPGKGLEWMGIIYPGDSDTRYSPSFQGQVTISADKSINTAYLQWSSLKASDTAIYYCVGLDWNYNPLRYWGPGTLVTVSS
VL: QSVLTQPPSVSAAPGQKVTISCSGSSSDIGSNYVSWYQQFPGTAPKLLIYDNNKRPSAIPDRFSGSKSGTSATLGITGLQTGDEADYYCGTWDSRLGIAVFGGGTQLTVLG
notes: residue limits as in claims 56 and 57
B6: the “Mean absorbance at 405 nm” value was 0.018 absorbance at 405 nm in test [9]; -0.01 absorbance at 405 nm in test [10]; 0.02 absorbance at 405 nm in test [11]; -0.01 absorbance at 405 nm in test [12]; 0.033 absorbance at 405 nm in test [13]; 0.007 absorbance at 405 nm in [14]. Besides, the “Mean absorbance at 405 nm” value is 0.056 absorbance at 405 nm in test [15] and -0.004 absorbance at 405 nm in test [16].

B7: K1-70 IgG (antibody, V domains shown)
VH: EVQLVQSGAEVKKPGQSLKISCKASGYSLTDNWIGWVRQKPGKGLEWMGIIYPGDSDTRYSPSFQGQVTISADKSINTAYLQWSSLKASDTAIYYCVGLDWNYNPLRYWGPGTLVTVSS
VL: QSVLTQPPSVSAAPGQKVTISCSGSSSDIGSNYVSWYQQFPGTAPKLLIYDNNKRPSAIPDRFSGSKSGTSATLGITGLQTGDEADYYCGTWDSRLGIAVFGGGTQLTVLG
notes: Human IgG1 lambda purified from hetero-hybridoma supernatant
B7: the “Mean absorbance at 405 nm” value in [9] came out at 0.738 absorbance at 405 nm; in test [10], 0.44 absorbance at 405 nm; in [11], 0.817 absorbance at 405 nm; in test [12] it was 0.045 absorbance at 405 nm; in test [13], 0.885 absorbance at 405 nm; in [14], 0.713 absorbance at 405 nm. The “Mean absorbance at 405 nm” value in [15] came to 1.13 absorbance at 405 nm; in test [16] it was 0.085 absorbance at 405 nm.
